Laboratory results taken from patent publication US20250340654A1 (INTERVET, published 2025).

T1: Canine IL-31RA ECD-10His (canine, biotin-labeled in the Octet assay (site not stated))
T1 construct: The ELISA and Octet protocols say only 'IL-31RA' or 'canine IL-31RA'; also called cIL-31RA; canine IL-31 receptor alpha extracellular domain, HIS-tagged
T1 chain: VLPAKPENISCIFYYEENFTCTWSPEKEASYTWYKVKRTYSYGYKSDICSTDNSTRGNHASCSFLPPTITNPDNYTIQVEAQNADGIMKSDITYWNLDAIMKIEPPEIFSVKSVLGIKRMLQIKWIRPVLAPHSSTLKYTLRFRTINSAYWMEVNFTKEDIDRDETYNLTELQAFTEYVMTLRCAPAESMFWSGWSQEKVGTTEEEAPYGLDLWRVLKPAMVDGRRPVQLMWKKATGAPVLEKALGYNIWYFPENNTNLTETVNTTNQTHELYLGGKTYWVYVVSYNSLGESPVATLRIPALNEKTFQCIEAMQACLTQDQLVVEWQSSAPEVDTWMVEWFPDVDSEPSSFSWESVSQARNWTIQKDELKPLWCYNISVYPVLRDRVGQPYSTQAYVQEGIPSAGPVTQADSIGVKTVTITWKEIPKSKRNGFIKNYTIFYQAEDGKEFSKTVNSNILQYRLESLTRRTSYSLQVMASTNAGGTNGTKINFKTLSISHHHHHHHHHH


Legend:
[1] = molecular target: T1, Canine IL-31RA ECD-10His; experiment: ELISA on coated canine IL-31RA, anti-canine IgG Fc-HRP (Example 11), the unit is that of the x axis 'Ab Log Conc. (ng/mL)'
Protocol: 1. Coat 200 ng/well of IL-31RA on an immunoplate and incubate the plate at 4° C. overnight. [0257] 2. Wash the plate 3 times with phosphate buffered saline (PBS) containing 0.05% Tween 20 (PBST). […] 3. Block the plate with 0.5% bovine serum albumin (BSA) in PBS for 45-60 min at room temperature. [0259] 4. Wash the plate 3 times with PBST. [0260] 5. Three-fold dilute the caninized antibody in each column or row of dilution plate starting at 0.3 μg/mL. [0261] 6. Transfer the diluted caninized antibody into each column or row of the immunoplate, and incubate the plate for 45-60 min at room temperature. [0262] 7. Wash the plate 3 times with PBST. [0263] 8. Add 1:4000 diluted horseradish peroxidase labeled anti-canine IgG Fc into each well of the plate, and then incubate the plate for 45-60 min at room temperature. [0264] 9. Wash the plate 3 times with PBST. [0265] 10. Add 3,3′,5,5′-tetramethylbenzidine (TMB) Substrate into each well of the plate, and incubate the plate for 10 to 15 min at room temperature to develop the color. [0266] 11. Add 100 μL 1.5 M phosphoric acid into each well to stop the reaction. Read plate at 450 nm with 540 nm reference wavelength.
As depicted in FIGS. 7A-7E, the caninized antibodies were tested for their reactivity to canine IL-31RA.

[2] = molecular target: T1, Canine IL-31RA ECD-10His; experiment: BLI (Octet HTX), biotin-labeled canine IL-31RA on SA biosensors, 1:1 fit
Protocol: These constants reflect the binding affinity of the individual monoclonal antibodies for canine IL-31 RA.
(§1) All kinetics measurements were performed by Octet HTX using SA biosensors and Data Acquisition 12.0 software. A biotin-labeled antigen (canine IL-31RA) was loaded onto the pre-rehydrated SA biosensors for 120s at a concentration of 1 μg/mL. Next, the biosensors were placed into Octet Kinetics Buffer (PBS+0.02% Tween 20, 0.1% BSA) for the blocking phase for 120s. Then, for the association phase, antigen loaded biosensors were placed into 2-fold serial dilutions from 100 nM down to 3.13 nM of anti-IL-31RA monoclonal antibody in Octet Kinetics Buffer for 300s. The last well was buffer alone and that sensor was used for reference sensor subtraction. Finally, the biosensors were placed into Octet Kinetics Buffer for the dissociation phase for 300s. Analysis was performed using Data Analysis 12.0 software and curves were fitted using a 1:1 binding model.

[3] = molecular target: T1, Canine IL-31RA ECD-10His; experiment: BLI (Octet), biotin-labeled canine IL-31RA on SA biosensors
Protocol: as §1
Two of the top blocking antibodies: 51F8 and 218D9, had KDs of about 0.2 nM and about 0.07 nM respectively (see, Table 5B below).

Row | Binder | EC50 [1] | Kd [2] | koff [2] | kon [2] | Kd [3] | koff [3] | kon [3]
1 | Chimeric 224G3 (antibody, V domains shown, canine constant regions not specified; also called m224G3 Chim) VH: EVQLVESGGDLVKPGGSLKLSCAASGFTFSSYGMSWVRQTPDKRLEWVATISNGGSYTYYPDSVKGRFTISRDNAKNTLYMQMSSLKSEDTAMYYCARNEPPDYWGQGTSVTVSS VL: QIVLTQSPAIMSASLGERVTMTCTASSSVGSSYLHWYQQKPGSSPKLWIYDTSNLASGVPVRFSGSGSGTSYSLTISSMEAEDAATYYCHQYHRSPYTFGGGTKLEIK | 0.383 ng/mL |  |  |  |  |  | 
2 | c100H8VH7VL4 (antibody, V domains shown, Caninized antibody; chains tied by name to c100H8VH7-cIgGBm and c100H8VL4-cCK; also called c100H8VH7L4) VH: EVQLVQSGAEVKKPGASVKVSCKASGYTFTDYNMDWVRQAPGAGLDWIGHINPNNGGILYNQKFKGKATLTADTSTSTAYMELSSLRAGDIAVYYCARWAPLVRQPYWYFDVWGQGTLVTVSS VL: DIVMTQTPLSLSVSPGETASISCKASQDINSYLNWFRQKPGQSPQLLIYRADRLVDGVPDRFSGSGSGTDFTLRISTVEADDTGVYYCLQYDEFPLTFGAGTKVELKR | 0.581 ng/mL |  |  |  |  |  | 
3 | Chimeric 100H8 (antibody, V domains shown, also called murine-canine chimeric 100H8) VH: EVQLQQSGPELVKPGASVKIPCKASGYTFTDYNMDWVKQSHGKSLEWIGHINPNNGGILYNQKFKGKATLTVDRSSNTAYMELRSLTSEDTAVYFCARWAPLVRQPYWYFDVWGTGTTVTVSS VL: DIKMTQSPSSIFASLGERVTITCKASQDINSYLNWFQQKPGKSPKTLIYRADRLVDGVPSRFSGSGSGQDYSLTISSLEYEDMGIYYCLQYDEFPLTFGAGTKLELN | 2.02 ng/mL |  |  |  |  |  | 
4 | 222E7 (antibody, V domains shown, Mouse monoclonal antibody from a hybridoma; also called mouse mAb 222E7) VH: EVQLQQSGPELVKPGSSVKIPCKASGYTFTDYNMDWVKQSHGKSLEWIGHINPNIGGTLYNQKFKGKATLSVDKSSSTAYMELRSLTSEDTAVYYCARWAQLQRQPYWYFDVWGPGTTVTVSS VL: DIKMTQSPSSMYASLGERVTITCKASQDINSYLNWFQQKPGKSPKTLIYRVNRLVDGVPSRFSGSGSGQDYSLTISSLEYEDMGIYYCLQYDEFPLTFGAGTKLELK |  | 0.174 nM | 0.000282 s⁻¹ | 1.62e+06 M⁻¹ s⁻¹ |  |  | 
5 | 100H8 (antibody, V domains shown, Mouse monoclonal antibody from a hybridoma; also called mouse mAb 100H8) VH: EVQLQQSGPELVKPGASVKIPCKASGYTFTDYNMDWVKQSHGKSLEWIGHINPNNGGILYNQKFKGKATLTVDRSSNTAYMELRSLTSEDTAVYFCARWAPLVRQPYWYFDVWGTGTTVTVSS VL: DIKMTQSPSSIFASLGERVTITCKASQDINSYLNWFQQKPGKSPKTLIYRADRLVDGVPSRFSGSGSGQDYSLTISSLEYEDMGIYYCLQYDEFPLTFGAGTKLELN |  | 0.152 nM | 0.00012 s⁻¹ | 788000 M⁻¹ s⁻¹ |  |  | 
6 | 74H10 (antibody, V domains shown, Mouse monoclonal antibody from a hybridoma; also called mouse mAb 74H10) VH: EVQLQQSGPELVKPGASMKIPCKTSGYTFTDYNMDWVKQSHGKSLEWIGHINPNNGGTLYNQKFKDKATLTVDRSSNTAYMELRSLTSEDTAVYYCARWAPLLRQPYWYFDVWGTGTTVTVSS VL: DIKMTQSPSSMYASLGERVTITCKASQDINSYLNWFQQKPGKSPKTLIYRADRLVDGVPSRFSGSGSGQDYSLTISSLEYEDMGIYYCLQYDEFPLTFGDGTKLELN |  | 0.196 nM | 9.05e-05 s⁻¹ | 463000 M⁻¹ s⁻¹ |  |  | 
7 | 55B3 (antibody, V domains shown, Mouse monoclonal antibody from a hybridoma; also called mouse mAb 55B3) VH: EVQLQQSGPELVKPGASVKIPCKASGYTFTDYNMDWVKQSHGKSLEWIGHINPNTGGTIYNQKFKGKATLTVDKSSSTAYMDLRSLTSEDTAVYYCARWAQLLRQPYWYFDVWGTGTTVTVSS VL: DIKMTQSPSSMYASLGERVTITCKASQDINSYFNWVQQKPGKSPKTLIFRANRLVDGVPSRFSGSGSGQDYSLTINSLEYEDMGIYYCLQYDEFPLTFGAGTKLELK |  | 0.272 nM | 0.000154 s⁻¹ | 568000 M⁻¹ s⁻¹ |  |  | 
8 | 51F8 (antibody, V domains shown, Mouse monoclonal antibody from a hybridoma; also called mouse mAb 51F8) VH: EVQLQQSVAELVRPGASVKLSCTASGFNIKNTFIHWVKQRPEQGLEWIGRIDPANGNTKYAPKFQGRATLTADTSSNTAYLQLSSLTSEDTAIYYCARYYYVSSYFDVWGTGTTVTVSS VL: SIVMTQTPKFLLVSAGDRVTITCKASQSVTNDVTWYQQKPGQSPKLLIFSASNRYTGVPDRFTGSGYGTDFTFTISTVQAEDLAVYFCQQDYSSPWTFGGGTKLEIK |  | 0.207 nM | 0.000141 s⁻¹ | 684000 M⁻¹ s⁻¹ |  |  | 
9 | Chimeric 51F8 (antibody, V domains shown, canine constant regions not specified; also called murine-canine chimeric 51F8) VH: EVQLQQSVAELVRPGASVKLSCTASGFNIKNTFIHWVKQRPEQGLEWIGRIDPANGNTKYAPKFQGRATLTADTSSNTAYLQLSSLTSEDTAIYYCARYYYVSSYFDVWGTGTTVTVSS VL: SIVMTQTPKFLLVSAGDRVTITCKASQSVTNDVTWYQQKPGQSPKLLIFSASNRYTGVPDRFTGSGYGTDFTFTISTVQAEDLAVYFCQQDYSSPWTFGGGTKLEIK | 3.42 ng/mL |  |  |  | 0.207 nM | 0.000141 s⁻¹ | 684000 M⁻¹ s⁻¹
10 | Chimeric 85C10 (antibody, V domains shown, canine constant regions not specified; also called murine-canine chimeric 85C10) VH: EFQLQQSGPELVKPGASVKISCKASGYSFTDYSINWVKQSNGKSLEWIGVINPNYGTSSHNQKFKGKATMTVDQSSSTAYMQLNSLTSEDSAVYYCARALDDYYFYWYFDVWGIGTTVTVSS VL: DVVMTQTPLSLPVSLGDQASISCRSSQSLVHTNGNTYLHWYLQKPGQSPKLLIYKVSNRFSGVPDRFSGSGSGTDFTLKISRVEAEDLGVYFCSQTTHVPLTFGAGTKLELK | 2.58 ng/mL |  |  |  |  |  | 
11 | 65G9 (antibody, V domains shown, Mouse monoclonal antibody from a hybridoma; also called mouse mAb 65G9) VH: EFQLQQSGPELVKPGASVKISCKASGYSFTDYGMNWLKQINGKSLEWIAIINPNYGTASSNPKFKDKATLTVDHSSSTAYMQLSSLTSEDSAVYYCARAFDGYYFYWYFDVWGTGTTVTVSS VL: DVVMTQTPLSLPVSLGDQASISCRSSQSLIHTNGNTYLHWYLQKPGQSPKLLIYKVSNRFSGVPDRFSGSGSGTDFTLKISRLEAEDLGVYFCSQSTHVPLTFGAGTKLELR |  | 0.451 nM | 0.000355 s⁻¹ | 787000 M⁻¹ s⁻¹ |  |  | 
12 | c51F8VH3VL6 (antibody, V domains shown, Caninized antibody; chains tied by name to c51F8VH3-cIgGBm and c51F8VL6-cCK; also called c51F8VH3L6) VH: EVQLVQSGAEVKKPGASVKVSCTASGFNIKNTFIHWVRQAPGAGLDWIGRIDPANGNTKYAPKFQGRATLTADTSTNTAYMQLSSLRAGDIAVYYCARYYYVSSYFDVWGQGTLVTVSS VL: DIVMTQTPLSLSVSPGETASISCKASQSVTNDVTWFRQKPGQSPQLLIYSASNRYTGVPDRFSGSGSGTDFTLRISTVEADDTGVYYCQQDYSSPWTFGQGTKLEIKR | 16.9 ng/mL |  |  |  | 2.67 nM | 0.00114 s⁻¹ | 428000 M⁻¹ s⁻¹
13 | c51F8VH3VL7 (antibody, V domains shown, Caninized antibody; chains tied by name to c51F8VH3-cIgGBm and c51F8VL7-cCK; also called c51F8VH3L7) VH: EVQLVQSGAEVKKPGASVKVSCTASGFNIKNTFIHWVRQAPGAGLDWIGRIDPANGNTKYAPKFQGRATLTADTSTNTAYMQLSSLRAGDIAVYYCARYYYVSSYFDVWGQGTLVTVSS VL: DIVMTQTPLSLSVSPGETASISCKASQSVTNDVTWFRQKPGQSPKLLIYSASNRYTGVPDRFSGSGSGTDFTLRISTVEADDTGVYYCQQDYSSPWTFGQGTKLEIKR | 25 ng/mL |  |  |  | 3.99 nM | 0.0016 s⁻¹ | 401000 M⁻¹ s⁻¹
